Experimental data reported in the supplement of paper PMC9112550, “Optimization of the antimicrobial peptide Bac7 by deep mutational scanning” (BMC Biology, 2022).

tested on: Escherichia coli TOP10; test: shrunken log2 fold change of peptide-encoding DNA abundance (4.5 h post-induction vs induction); higher = less antimicrobial activity (less host growth inhibition); details: time post-induction: 4.5 h; library: site-saturation at positions 5, 18, 19, 20
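Also: peptides expressed intracellularly from a pBAD plasmid library in pooled LB shake-flask culture, induced with 0.3% L-arabinose, DNA abundance read by NGS, three biological replicates, DESeq2 with apeglm shrinkage.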

Point of comparison: RRIRIRPPRLPRPRPRPFLFPRP, “shrunken log2 fold change” value -0.586. Against it:
- RRIRPRPPRLPRPRPRPELIPRP — higher, 0.0313
- RRIRERPPRLPRPRPRPGYLPRP — within 0.2 log units, -0.426
- RRIRPRPPRLPRPRPRPVRYPRP — higher, 0.346
- RRIRCRPPRLPRPRPRPWRGPRP — higher, 0.185
- RRIRTRPPRLPRPRPRPYMTPRP — higher, -0.375
- RRIRQRPPRLPRPRPRPEHDPRP — higher, -0.0684
- RRIRGRPPRLPRPRPRPCWGPRP — higher, 0.157
- RRIRERPPRLPRPRPRPPDMPRP — higher, -0.332
- RRIRRRPPRLPRPRPRPDHIPRP — higher, 0.0664
- RRIRERPPRLPRPRPRPHYYPRP — lower, -0.83
- RRIRMRPPRLPRPRPRPMNWPRP — higher, -0.117
- RRIRKRPPRLPRPRPRPQHMPRP — higher, 0.0396
- RRIRSRPPRLPRPRPRPEAIPRP — higher, 0.748
- RRIRGRPPRLPRPRPRPVWYPRP — higher, 0.196
- RRIRFRPPRLPRPRPRPCAFPRP — within 0.2 log units, -0.393
- RRIRQRPPRLPRPRPRPAYKPRP — within 0.2 log units, -0.534
- RRIRIRPPRLPRPRPRPYVYPRP — higher, -0.144
- RRIRWRPPRLPRPRPRPDDDPRP — higher, 3.98
- RRIRTRPPRLPRPRPRPWKCPRP — higher, -0.0161
- RRIRMRPPRLPRPRPRPWIMPRP — higher, 0.00173
- RRIRDRPPRLPRPRPRPGIDPRP — higher, -0.245
- RRIRARPPRLPRPRPRPIAVPRP — higher, 0.166
- RRIRLRPPRLPRPRPRPWWKPRP — higher, -0.198
- RRIRTRPPRLPRPRPRPNDCPRP — higher, 0.0184
- RRIRTRPPRLPRPRPRPDAPPRP — higher, 0.215
- RRIRTRPPRLPRPRPRPYPCPRP — higher, -0.245
- RRIRHRPPRLPRPRPRPMNFPRP — higher, -0.0483
- RRIRMRPPRLPRPRPRPARHPRP — higher, 0.974
- RRIRTRPPRLPRPRPRPAKGPRP — higher, 0.0671
- RRIRERPPRLPRPRPRPFAVPRP — within 0.2 log units, -0.759
- RRIRRRPPRLPRPRPRPWMRPRP — higher, 0.172
- RRIRMRPPRLPRPRPRPVGIPRP — higher, 0.158
- RRIRIRPPRLPRPRPRPGQHPRP — higher, -0.0183
- RRIRHRPPRLPRPRPRPATWPRP — higher, 0.222
- RRIRYRPPRLPRPRPRPAYSPRP — higher, -0.267
- RRIRARPPRLPRPRPRPVHMPRP — higher, -0.00775
- RRIRPRPPRLPRPRPRPHIAPRP — within 0.2 log units, -0.392
- RRIRGRPPRLPRPRPRPPPWPRP — higher, 1.41
- RRIRIRPPRLPRPRPRPFNAPRP — within 0.2 log units, -0.551
- RRIRNRPPRLPRPRPRPGTNPRP — higher, -0.0826
- RRIRHRPPRLPRPRPRPYAIPRP — higher, -0.149
- RRIRFRPPRLPRPRPRPHGPPRP — higher, 0.11
- RRIRCRPPRLPRPRPRPQPEPRP — higher, 0.13
- RRIRKRPPRLPRPRPRPPVHPRP — higher, 0.273
- RRIRMRPPRLPRPRPRPGPAPRP — higher, 1.71
- RRIRERPPRLPRPRPRPDSEPRP — higher, -0.0854
- RRIRMRPPRLPRPRPRPLKIPRP — higher, -0.0474
- RRIRIRPPRLPRPRPRPVIQPRP — lower, -1.44
- RRIRYRPPRLPRPRPRPRKKPRP — higher, -0.0257
- RRIRERPPRLPRPRPRPHCPPRP — higher, -0.0673
- RRIRSRPPRLPRPRPRPEGHPRP — higher, 0.0136
- RRIRFRPPRLPRPRPRPGQYPRP — higher, -0.0815
- RRIRTRPPRLPRPRPRPNVVPRP — higher, -0.0363
- RRIRDRPPRLPRPRPRPIYEPRP — higher, 0.0032
- RRIRMRPPRLPRPRPRPLTRPRP — higher, 0.608
- RRIRLRPPRLPRPRPRPSLKPRP — higher, 0.0368
- RRIRPRPPRLPRPRPRPQRPPRP — higher, 0.272
- RRIRSRPPRLPRPRPRPTERPRP — higher, 0.142
- RRIRQRPPRLPRPRPRPTTLPRP — higher, -0.196
- RRIRNRPPRLPRPRPRPPYQPRP — higher, -0.22
- RRIRLRPPRLPRPRPRPIQIPRP — higher, 0.03
- RRIRQRPPRLPRPRPRPQKHPRP — higher, -0.324
- RRIRRRPPRLPRPRPRPQPTPRP — higher, 0.533
- RRIRQRPPRLPRPRPRPWIKPRP — higher, -0.0062
- RRIRKRPPRLPRPRPRPHKTPRP — higher, -0.0618
- RRIRKRPPRLPRPRPRPQYGPRP — higher, -0.0781
- RRIRMRPPRLPRPRPRPFVLPRP — within 0.2 log units, -0.691
- RRIRIRPPRLPRPRPRPHPFPRP — within 0.2 log units, -0.583
- RRIRKRPPRLPRPRPRPTGWPRP — higher, 1.44
- RRIRLRPPRLPRPRPRPYKRPRP — higher, -0.0165
- RRIRSRPPRLPRPRPRPKKDPRP — higher, 0.104
- RRIRMRPPRLPRPRPRPTDTPRP — higher, 0.227
- RRIRNRPPRLPRPRPRPFIYPRP — lower, -0.856
- RRIRGRPPRLPRPRPRPGHYPRP — higher, 0.00558
